{
  "source": "patent US20250296984A1",
  "about": "“THERAPEUTIC AND DIAGNOSTIC AGENTS AND USES THEREOF” (priority 2022, published 2025)",
  "key": {"[1]": {"test_system": "human heart muscle tissue", "assay": "IHC on human cardiac tissue samples (TMA with malignant pheochromocytoma positive control)", "protocol": "(§1) FIG. 19. A. Flowcytometry analysis with the 28-13-5G6-1D3-PE antibody were conducted on various human primary cells to exclude general off-target binding to the surface of these cell types. The following cell lines were studied: human primary adrenal cortical cells, human primary kidney epithelial cells, human primary cardiac microvascular endothelial cells, human primary liver epithelial cells and human primary vein smooth muscle cells. […] B. Original human primary cardiac cells were not available, and human cardiac tissue samples were therefore studied for staining of 13-5G6-1D3 by immunohistochemistry. […] If there were HCMV infections present in the human heart, they were always of productive infection type. […] The positive 13-5G6-1D3 and HCMV ISH results are marked with arrows in the figure. A colour version of FIG. 19 is also provided."}, "[2]": {"molecular_target": "T1, HCMV US28 (strain DB) on CHO-US28-A1 cells (Human cytomegalovirus, UniProt P69332, D170N/D19A)", "T1 construct": "expressed in transfected cells; host or cells: CHO-K1 (vector pCDH-EF1a-MCS)", "assay": "FACS surface binding to CHO-US28-A1 cells", "protocol": "Plasmid construction was performed to create a US28-overexpressing cell line. The US28 sequence, identical to HCMV DB strain (Acc. Number: KT959235; SEQ ID No. 5 of this application), fused to a 6His tag at its C terminal part, was inserted into the pCDH-EF1a-MCS vector (Creative Biolabs, Shirley, NY 11967, USA). The plasmid construct was transfected to CHO-K1 cell line. The cells were collected 48 hours after transfection. The cell line was named as CHO-US28-A1-6His and its protein sequence (SEQ ID NO: 47) is the following:\nFlowcytometry was used to analyze cell surface binding by the US28 antibodies. Upon cell harvest, adherent non-infected and US28 overexpressing or HCMV infected cells were washed three times with cell staining buffer (phosphate-buffered saline (PBS (Amresco, Cleveland, 44139, USA) added 0.5% BSA and 0.05% Sodium Azide (NaN3)). The cells were trypisinized and then resuspended in DMEM with 10% FBS to inhibit the action of trypsin. The cells were then pelleted at 400×g for 10 minutes and washed three times in cell staining buffer. Cell viability and cell concentration were measured by tryphan blue viability assay and a cell counter (Countess, Invitrogen, Carlsbad, CA 92008, USA). The cell suspension was adjusted to 1×10^6 cells/mL with ice-cold cell staining buffer. The cells were blocked in 1 ml 10% FBS or 1% BSA in PBS per 1×10^6 cells, vortexed briefly, and incubated for 10-30 minutes to eliminate non-specific staining. The cells were then stained with the respective antibodies and appropriate negative controls.\nThe primary antibodies used were I) 13-5G6-1D3 (50 μg/ml) as a positive control; II) Monovalent and Bivalent VUN100 ScFvs 1:1 (50 μg/ml); III) test antibodies for the specified subclones (1:5).\nThe primary antibodies used were I) 13-5G6-1D3 1:50 to 50 μg/ml; and II) Commercial US28 polyclonal antibody (50 μg/ml), III) Monovalent and Bivalent VUN100 ScFvs (50 μg/ml) and for certain experiments, the appropriate isotype controls were included.\nIn both cases (ECD1 and ECD3), the antibodies were added to the cells, vortexed and incubated on ice for 15 to 30 minutes up to overnight and washed twice with cell staining buffer to remove any unbound antibodies. In addition, the CMV Immediate Early Antigen (IE) Alexa488 Ab, MAB810X, 1:50 was included to verify HCMV infected cells in one of the experiments. Because it binds to an intracellular, HCMV encoded protein, it was added after permeabilizing the cells in 70% ethanol for 30 min on ice.\n1:500-1:5000 in cell staining buffer of the appropriate fluorescent-conjugated appropriate secondary antibodies were added and incubated on ice for 15-20 min in the dark. The cells were washed three times to remove any unbound antibodies. The cells were then fixed with 0.5% paraformaldehyde (PFA) for 30 min on ice and resuspended in 200-500 μL cell staining buffer for final flow cytometric analysis using an Accuri C6 flow cytometry system (BD Biosciences, San Jose, CA 95131, USA). Data analyses were performed using FlowJo software v8.8 (Treestar Inc. Ashland, OR 97520, USA).\nBackground levels were determined using the respective secondary antibodies (anti-mFc-FITC for the subclones, or anti-myc-PE for the VUN100 molecules) with CHO cells and CHO-US28 cells. Given that US28 is expressed on the cell surface, the cells were non-permeabilised for these experiments."}, "[3]": {"test_system": "human astrocytoma and glioblastoma tissues", "assay": "IHC in human brain cancer cohort (astrocytoma grade 1-3, glioblastoma grade 4, NAT)", "parameters": "key to IHC staining grade: stained negative (0); positive cytoplasmic staining (1+); moderately positive cytoplasmic staining (2+)", "text": "FIG. 17. Human glioblastoma tissues were studied with the US28-13-5G6-1D3 rAb and MAB810R antibodies by using IHC and with ISH analysis for HCMV DNA. […] The staining was present in several cells in each positive sample which was different from the breast cancer samples. However, the staining of the glia cells was weaker than for the US28-13-5G6-1D3 rAb. C. The brain tissue NAT is negative for 13-5G6-1D3 staining. […] The arrows indicate these signals. E. The staining of the same Gliobastoma grade IV sample is negative for the IgG antibody. F. The ISH analysis is negative for the same brain tissue NAT sample. The positive glia cells are indicated with arrows in the non-colour version of these figures. A colour version of FIG. 17 is provided on the page after the non-colour version.\nFIG. 18. US28-13-5G6-1D3 staining of the human brain cancer cohort containing human astrocytoma grade 1-3 and glioblastoma grade 4 and NAT tissues. All the astrocytoma grade 1 (n=4) stained negative (0). Of the grade 2-3 astrocytomas, 6 stained negative (0), 37 had positive cytoplasmic staining (1+), and 2 had moderately positive cytoplasmic staining (2+). […] The ISH analysis confirmed presence of nuclear HCMV DNA in tumor cells of all tumor samples. Only 3 of 10 NAT samples were HCMV DNA positive."}, "[4]": {"test_system": "human primary adrenal cortical, kidney epithelial, cardiac microvascular endothelial, liver epithelial and vein smooth muscle cells", "assay": "Flow cytometry off-target surface binding to human primary cells", "conditions": "all five cell types, PE-labelled antibody", "protocol": "as §1"}},
  "note": "Marks after values point to notes of the source that are not given here.",
  "data": [
    {"molecule": "US28-13-5G6-1D3: monoclonal antibody against ECD3 of HCMV US28; VH SEQ ID NO: 12, VL SEQ ID NO: 18; rAb is the recombinant product (antibody, V domains shown, Mature form of VH sequence of 1D3, without the leader sequence; Mature form of VL sequence of 1D3, without the leader sequence, monoclonal antibody against ECD3 of HCMV US28; rAb is the recombinant product) VH: EVKLVESGGGLVQPGGSLRLACATSGFTFTDYYMSWVRQPPGKALEWLGFIRSKANGYTTEYSASVKGRFTISRDNSQSILYLQMNTLRSEDSATYYCARDERRTAWLAYWGQGTLVTVSA VL: DVLMTQTPLSLPVSLGDQASISCRSSQSIVHSNGNTYLDWYLQKPGQSPKLLIYKVSNRFSGVPDRFSGSGSGTDFTLKISRVEAEDLGVYYCFQGSHVPTWTFGGGTKLEIK", "values": [
      {"measurement": "IHC staining of heart muscle tissue", "setting": "[1]", "value": "negative"},
      {"measurement": "binding to CHO-US28-A1 cells relative to any of the other 9 clones", "setting": "[2]; 1:50 w/v Ab dilution", "value": "8-10 fold"},
      {"measurement": "CHO-US28-A1 cells bound/stained", "setting": "[2]; comparison with commercial US28 Ab, FIG. 11A", "value": "more than 50%"},
      {"measurement": "IHC staining grade", "setting": "[3]; all astrocytoma grade 1 (n=4)", "value": 0},
      {"measurement": "number of tumors stained negative (0)", "setting": "[3]; grade 2-3 astrocytomas", "value": 6},
      {"measurement": "number of tumors with moderately positive cytoplasmic staining (2+)", "setting": "[3]; grade 2-3 astrocytomas", "value": 2},
      {"measurement": "number of tumors with positive cytoplasmic staining (1+)", "setting": "[3]; grade 2-3 astrocytomas", "value": 37}
    ]},
    {"molecule": "13-5G6-1D3: mouse monoclonal IgG1 kappa antibody against US28 ECD3; VH SEQ ID NO: 12, VL SEQ ID NO: 18 (antibody, V domains shown, Mature form of VH sequence of 1D3, without the leader sequence; Mature form of VL sequence of 1D3, without the leader sequence) VH: EVKLVESGGGLVQPGGSLRLACATSGFTFTDYYMSWVRQPPGKALEWLGFIRSKANGYTTEYSASVKGRFTISRDNSQSILYLQMNTLRSEDSATYYCARDERRTAWLAYWGQGTLVTVSA VL: DVLMTQTPLSLPVSLGDQASISCRSSQSIVHSNGNTYLDWYLQKPGQSPKLLIYKVSNRFSGVPDRFSGSGSGTDFTLKISRVEAEDLGVYYCFQGSHVPTWTFGGGTKLEIK", "values": [
      {"measurement": "IHC staining of malignant pheochromocytoma", "setting": "[1]; positive control on the same TMA plate", "value": "positive staining"},
      {"measurement": "IHC staining of brain tissue NAT", "setting": "[3]", "value": "negative"},
      {"measurement": "surface binding to human primary cells", "setting": "[4]", "value": "< 1", "unit": "%"}
    ]},
    {"molecule": "13-5G6-1D3 rAb: recombinant antibody product of US28-13-5G6-1D3 produced in HEK293-F cells (antibody) heavy: EVKLVESGGGLVQPGGSLRLACATSGFTFTDYYMSWVRQPPGKALEWLGFIRSKANGYTTEYSASVKGRFTISRDNSQSILYLQMNTLRSEDSATYYCARDERRTAWLAYWGQGTLVTVSAAKTTPPSVYPLAPGSAAQTNSMVTLGCLVKGYFPEPVTVTWNSGSLSSGVHTFPAVLQSDLYTLSSSVTVPSSTWPSETVTCNVAHPASSTKVDKKIVPRDCGCKPCICTVPEVSSVFIFPPKPKDVLTITLTPKVTCVVVDISKDDPEVQFSWFVDDVEVHTAQTQPREEQFNSTFRSVSELPIMHQDWLNGKEFKCRVNSAAFPAPIEKTISKTKGRPKAPQVYTIPPPKEQMAKDKVSLTCMITDFFPEDITVEWQWNGQPAENYKNTQPIMDTDGSYFIYSKLNVQKSNWEAGNTFTCSVLHEGLHNHHTEKSLSHSPGK light: DVLMTQTPLSLPVSLGDQASISCRSSQSIVHSNGNTYLDWYLQKPGQSPKLLIYKVSNRFSGVPDRFSGSGSGTDFTLKISRVEAEDLGVYYCFQGSHVPTWTFGGGTKLEIKRADAAPTVSIFPPSSEQLTSGGASVVCFLNNFYPKDINVKWKIDGSERQNGVLNSWTDQDSKDSTYSMSSTLTLTKDEYERHNSYTCEATHKTSTSPIVKSFNRNEC", "values": [
      {"measurement": "Binding Specificity (ratio of surface binding)", "setting": "[2]; CHO-US28-A1 cells compared with US28 negative control CHO cells", "value": "21.5*"},
      {"measurement": "higher surface binding to US28 expressing CHO cells than control CHO cells", "setting": "[2]; FIG. 7", "value": "> 21", "unit": "times"}
    ]}
  ]
}
